B1: Pistol ribozyme (parent)
chain: GGGUCGUUGUUCCAUAAUCGCGUGGAUAUGGCACGCAAGUUUCUACCGGGCACCGUAAAUGUCCGACUGGAGCCGUUCGGGCGGCUAUAAACAGACCUCAGGCCCGAAGCGUGGCGGCACCUGCCGCCGGUGGUAAAAAAGAUCGGAAGAGCACACGUCU

Variants of: B1
Assay: aptazyme ON/OFF ratio, guanine; higher = stronger switching; co-transcriptional cleavage with and without guanine

Row | Variant | aptazyme ON/OFF ratio
1 | U7G U8A G9C U11G C12G C13A | 1.01
2 | U7G U8A G9C U11G C12G C13G | 1.03
3 | U7G U8A G9C U11G C12G C13U | 1.03
4 | U7G U8A G9C U11G C13G | 1.04
5 | U7G U8A G9C U11G C13A | 1.06
6 | U7G U8A G9C U11G C13U | 1.04
7 | U7G U8A U10A U11A C12A C13G | 1.18
8 | U7G U8A U10A U11A C12A C13U | 1.08
9 | U7G U8A U10A U11A C12A C13A | 1.21
10 | U7G U8A G9U U10G U11C C12A | 1.14
11 | U7G U8A G9U U10G U11C C12U | 1.05
12 | U7G U8A G9U U10G U11C C12G | 1.1
13 | U7G U8A G9U U10G U11A | 1.05
14 | U7G U8A G9U U10G U11C | 1.04
15 | U7G U8A G9U U10G U11G | 1.11
16 | U7G U8A U10A U11A C13U | 1.21
17 | U7G U8A U10A U11A C13A | 1.2
18 | U7G U8A U10A U11A C13G | 1.15
19 | U7G U8A G9U U10A U11A C12U C13U | 1.06
20 | U7G U8A G9U U10A U11A C12U C13A | 1.07
21 | U7G U8A G9U U10A U11A C12U C13G | 1.07
22 | U7G U8A G9U U10C U11G C12A C13G | 1.05
23 | U7G U8A G9U U10C U11G C12A C13U | 1.11
24 | U7G U8A G9U U10C U11G C12A C13A | 1.08

Row | Variant | aptazyme ON/OFF ratio
25 | U7G U8A G9U U10A C12A C13G | 1.06
26 | U7G U8A G9U U10A C12A C13U | 1.06
27 | U7G U8A G9U U10A C12A C13A | 1.04
28 | U7G U8A G9U U11G C12A C13G | 1.05
29 | U7G U8A G9U U11G C12A C13U | 1.09
30 | U7G U8A G9U U11G C12A C13A | 1.09
31 | U7G U8A G9U U10C U11C C12G | 1.08
32 | U7G U8A G9U U10C U11C C12A | 1.09
33 | U7G U8A G9U U10C U11C C12U | 1.06
34 | U7G U8A G9U U10C U11G C13G | 1.09
35 | U7G U8A G9U U10C U11G C13U | 1.09
36 | U7G U8A G9U U10C U11G C13A | 1.1
37 | U7G U8A G9U U10C U11A C12A C13A | 1.14
38 | U7G U8A G9U U10C U11A C12A C13G | 1.06
39 | U7G U8A G9U U10C U11A C12A C13U | 1.09
40 | U7G U8A G9U U10C U11A C12U C13U | 1.06
41 | U7G U8A G9U U10C U11A C12U C13G | 1.09
42 | U7G U8A G9U U10C U11A C12U C13A | 1.05
43 | U7G U8A G9U | 2.15
44 | U7G U8A G9C U11A C12G | 1.04
45 | U7G U8A G9C U11A C12U | 1.03
46 | U7G U8A U10A U11A C12U | 1.12
47 | U7G U8A U10A U11A C12A | 1.08
48 | U7G U8A U10A U11A C12G | 1.14

Row | Variant | aptazyme ON/OFF ratio
49 | U7G U8A G9U U11G C12G C13A | 1.01
50 | U7G U8A G9U U11G C12G C13G | 1.03
51 | U7G U8A G9U U11G C12G C13U | 1.06
52 | U7G U8A G9C U11C C12G C13G | 1.03
53 | U7G U8A G9C U11C C12G C13U | 1.04
54 | U7G U8A G9C U11C C12G C13A | 1.02
55 | U7G U8A G9U U11C C12G C13U | 1.08
56 | U7G U8A G9U U11C C12G C13G | 1.04
57 | U7G U8A G9U U11C C12G C13A | 1.09
58 | U7G U8A G9U U11G C12U | 1.23
59 | U7G U8A G9U U11G C12G | 1.12
60 | U7G U8A G9U U11G C12A | 1.07
61 | U7G U8A G9U U10A U11G C12A C13A | 1.09
62 | U7G U8A G9U U10A U11G C12A C13G | 1.06
63 | U7G U8A G9U U10A U11G C12A C13U | 1.09
64 | U7G U8A G9U U10C U11G C12G C13A | 1.07
65 | U7G U8A G9U U10C U11G C12G C13G | 1.05
66 | U7G U8A G9U U10C U11G C12G C13U | 1.02
67 | U7G U8A G9U U10G U11G C12G | 1.29
68 | U7G U8A G9U U10G U11G C12A | 1.24
69 | U7G U8A G9U U10G U11G C12U | 1.15
70 | U7G U8A U10A C12G C13A | 1.23
71 | U7G U8A U10A C12G C13U | 1.47
72 | U7G U8A U10A C12G C13G | 1.22

Row | Variant | aptazyme ON/OFF ratio
73 | U7G U8A G9U U10A U11A C12A C13U | 1.04
74 | U7G U8A G9U U10A U11A C12A C13A | 1.13
75 | U7G U8A G9U U10A U11A C12A C13G | 1.08
76 | U7G U8A U10A | 1.35
77 | U7G U8A G9U U10A U11A C12A | 1.08
78 | U7G U8A G9U U10A U11A C12U | 1.09
79 | U7G U8A G9U U10A U11A C12G | 1.05
80 | U7G U8A G9U U10C U11G C12U | 1.35
81 | U7G U8A G9U U10C U11G C12A | 1.06
82 | U7G U8A G9U U10C U11G C12G | 1.1
83 | U7G U8A G9U U10C C12U C13A | 1.12
84 | U7G U8A G9U U10C C12U C13U | 1.03
85 | U7G U8A G9U U10C C12U C13G | 1.04
86 | U7G U8A G9U U10G C12A C13U | 1.08
87 | U7G U8A G9U U10G C12A C13G | 1.03
88 | U7G U8A G9U U10G C12A C13A | 1.11
89 | U7G U8A G9U U10G U11A C12A C13A | 1.12
90 | U7G U8A G9U U10G U11A C12A C13U | 1.07
91 | U7G U8A G9U U10G U11A C12A C13G | 1.07
92 | U7G U8A G9U U10C C12G | 1.52
93 | U7G U8A G9U U10C C12U | 1.32
94 | U7G U8A G9U U10C C12A | 1.2
95 | U7G U8A G9U U10C U11G C12U C13G | 1.07
96 | U7G U8A G9U U10C U11G C12U C13A | 1.09

Row | Variant | aptazyme ON/OFF ratio
97 | U7G U8A G9U U10C U11G C12U C13U | 1.19
98 | U7G U8A G9U U10A U11A C13G | 1.02
99 | U7G U8A G9U U10A U11A C13A | 1.13
100 | U7G U8A G9U U10A U11A C13U | 1.07
101 | U7G U8A G9U U10A U11G C13G | 1.03
102 | U7G U8A G9U U10A U11G C13A | 1.09
103 | U7G U8A G9U U10A U11G C13U | 1.09
104 | U7G U8A U10A C12G | 1.3
105 | U7G U8A U10A C12A | 1.26
106 | U7G U8A U10A C12U | 1.18
107 | U7G U8A G9C U11C C12U C13A | 1.06
108 | U7G U8A G9C U11C C12U C13U | 1.03
109 | U7G U8A G9C U11C C12U C13G | 1.08
110 | U7G U8A G9U U10A U11G C12G C13A | 1.13
111 | U7G U8A G9U U10A U11G C12G C13U | 1.08
112 | U7G U8A G9U U10A U11G C12G C13G | 1.15
113 | U7G U8A U10A U11A | 2.2
114 | U7G U8A G9U U11A C12U C13U | 1.07
115 | U7G U8A G9U U11A C12U C13A | 1.02
116 | U7G U8A G9U U11A C12U C13G | 1.07
117 | U7G U8A G9U C12A C13U | 1.1
118 | U7G U8A G9U C12A C13A | 1.1
119 | U7G U8A G9U C12A C13G | 1.05
120 | U7G U8A G9U U10G U11G C13U | 1.18

Row | Variant | aptazyme ON/OFF ratio
121 | U7G U8A G9U U10G U11G C13G | 1.17
122 | U7G U8A G9U U10G U11G C13A | 1.3
123 | U7G U8A G9U U10G C12G C13G | 1.07
124 | U7G U8A G9U U10G C12G C13A | 1.05
125 | U7G U8A G9U U10G C12G C13U | 1.12
126 | U7G U8A G9U U10G | 1.51
127 | U7G U8A G9U U10C | 3.13
128 | U7G U8A G9U U10A | 1.46
129 | U7G U8A G9U U10C U11A C12G C13U | 1.09
130 | U7G U8A G9U U10C U11A C12G C13G | 1.07
131 | U7G U8A G9U U10C U11A C12G C13A | 1.1
132 | U7G U8A G9U U10G C13G | 1.19
133 | U7G U8A G9U U10G C13A | 1.35
134 | U7G U8A G9U U10G C13U | 1.21
135 | U7G U8A G9C U11A C12A C13U | 1.04
136 | U7G U8A G9C U11A C12A C13G | 1.05
137 | U7G U8A G9C U11A C12A C13A | 1.01
138 | U7G U8A G9U U11A C12G | 1.14
139 | U7G U8A G9U U11A C12A | 1.14
140 | U7G U8A G9U U11A C12U | 1.17
141 | U7G U8A U10A C13A | 1.2
142 | U7G U8A U10A C13G | 1.44
143 | U7G U8A U10A C13U | 1.25
144 | U7G U8A G9U U10G U11C C13G | 1.04

Row | Variant | aptazyme ON/OFF ratio
145 | U7G U8A G9U U10G U11C C13A | 1.06
146 | U7G U8A G9U U10G U11C C13U | 1.06
147 | U7G U8A U10A C12A C13G | 1.3
148 | U7G U8A U10A C12A C13A | 1.33
149 | U7G U8A U10A C12A C13U | 1.08
150 | U7G U8A G9U U10C U11C C12U C13U | 1.06
151 | U7G U8A G9U U10C U11C C12U C13G | 1.06
152 | U7G U8A G9U U10C U11C C12U C13A | 1.03
153 | U7G U8A G9C U11C C12U | 1.11
154 | U7G U8A G9C U11C C12G | 1.05
155 | U7G U8A G9C U11C C12A | 1.11
156 | U7G U8A G9U U10C U11A C13A | 1.1
157 | U7G U8A G9U U10C U11A C13G | 1.05
158 | U7G U8A G9U U10C U11A C13U | 1.08
159 | U7G U8A G9U U10A C12U C13U | 1.07
160 | U7G U8A G9U U10A C12U C13A | 1.07
161 | U7G U8A G9U U10A C12U C13G | 1.06
162 | U7G U8A G9U U10G C12G | 1.07
163 | U7G U8A G9U U10G C12U | 1.13
164 | U7G U8A G9U U10G C12A | 1.09
165 | U7G U8A G9U U10A U11C C12G C13U | 1.05
166 | U7G U8A G9U U10A U11C C12G C13G | 1.05
167 | U7G U8A G9U U10A U11C C12G C13A | 1.06
